In publication PMC6208366, “Structure and pro-toxic mechanism of the human Hsp90/PPIase/Tau complex” (Nature Communications, 2018):

Assays:
[1] = target: T1, full-length human Tau (htau40, 441 residues, 2N4R) (human, UniProt P10636-8 1-441); assay: NMR titration; 1H-15N spectra of 15N-labeled Tau (30-50 μM) with up to 5 equivalents of unlabeled partner, 5 °C, 50 mM sodium phosphate/10 mM NaCl/1 mM DTT pH 6.8; details: both partners purified
T1 construct: 15N-labelled for the NMR titrations; also called 2N4R Tau; source: E. coli BL21 (DE3), vector pNG2, purified (boiling, SP-Sepharose)

[2] = target: T2, human full-length Hsp90β (human, UniProt P08238 1-724); assay: paramagnetic NMR (pseudo-contact shifts); 80 μM Ile-labelled Hsp90 with 40 μM CLaNP-7-tagged FKBP51 mutant (Tm3+ against Lu3+), 25 °C, 50 mM sodium phosphate/300 mM NaCl pH 7.2 in D2O; details: both partners purified
T2 construct: Human Hsp90β (heat-shock protein 90 beta), full length, dimer; For NMR, Ile δ1 methyl-labelled in a deuterated background or unlabelled; nothing is said for Hsp90; also called heat-shock protein 90; Hsp90 dimer; source: E. coli BL21 (DE3) or Rosetta 2 (DE3), purified (Ni-NTA, SEC)
T2 sequence (P08238 whole entry): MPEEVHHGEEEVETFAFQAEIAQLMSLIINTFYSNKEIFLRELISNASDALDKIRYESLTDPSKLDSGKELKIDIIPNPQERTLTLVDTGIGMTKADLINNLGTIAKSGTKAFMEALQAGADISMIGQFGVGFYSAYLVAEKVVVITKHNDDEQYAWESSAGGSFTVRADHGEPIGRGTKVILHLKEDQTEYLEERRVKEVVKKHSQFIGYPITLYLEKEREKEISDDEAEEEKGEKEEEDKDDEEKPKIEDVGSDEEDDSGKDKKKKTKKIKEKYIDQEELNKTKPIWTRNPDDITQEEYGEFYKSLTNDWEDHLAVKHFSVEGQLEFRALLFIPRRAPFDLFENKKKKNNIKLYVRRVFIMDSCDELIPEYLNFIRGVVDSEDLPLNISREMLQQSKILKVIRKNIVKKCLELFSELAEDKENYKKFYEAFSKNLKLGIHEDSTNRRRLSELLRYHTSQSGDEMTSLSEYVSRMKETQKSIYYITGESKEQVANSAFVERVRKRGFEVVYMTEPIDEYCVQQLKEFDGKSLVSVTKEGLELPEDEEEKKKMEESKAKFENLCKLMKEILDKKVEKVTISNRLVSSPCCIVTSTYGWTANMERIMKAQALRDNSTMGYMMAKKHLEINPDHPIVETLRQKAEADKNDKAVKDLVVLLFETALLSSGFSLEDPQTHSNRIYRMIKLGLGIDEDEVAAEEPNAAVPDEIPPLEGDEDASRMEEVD

T1 sequence (P10636 other isoform, or with tags, fused parts or gaps): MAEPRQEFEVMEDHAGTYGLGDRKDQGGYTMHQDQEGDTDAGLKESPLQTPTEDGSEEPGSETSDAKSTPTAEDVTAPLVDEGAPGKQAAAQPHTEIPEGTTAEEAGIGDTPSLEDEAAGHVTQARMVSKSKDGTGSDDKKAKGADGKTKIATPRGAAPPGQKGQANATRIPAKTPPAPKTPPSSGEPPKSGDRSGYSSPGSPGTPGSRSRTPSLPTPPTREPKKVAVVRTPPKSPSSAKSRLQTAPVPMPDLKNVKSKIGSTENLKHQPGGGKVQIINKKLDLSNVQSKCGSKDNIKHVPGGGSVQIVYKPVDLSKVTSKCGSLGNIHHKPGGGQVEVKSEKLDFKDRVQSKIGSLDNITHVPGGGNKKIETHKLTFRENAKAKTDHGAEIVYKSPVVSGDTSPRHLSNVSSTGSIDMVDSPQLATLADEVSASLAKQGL

binding result [1] | binding result [2] | Binder
binds |  | full-length human FKBP51 (natural protein, UniProt Q13451 1-457, looked up, For NMR, Leu/Val or Ala/Met methyl-labelled or unlabelled; also called PPIase; source: E. coli BL21 (DE3) or Rosetta 2 (DE3), purified (Ni-NTA, HRV3C cut, SEC)) MTTDEGAKNNEESPTATVAEQGEDITSKKDRGVLKIVKRVGNGEETPMIGDKVYVHYKGKLSNGKKFDSSHDRNEPFVFSLGKGQVIKAWDIGVATMKKGEICHLLCKPEYAYGSAGSLPKIPSNATLFFEIELLDFKGEDLFEDGGIIRRTKRKGEGYSNPNEGATVEIHLEGRCGGRMFDCRDVAFTVGEGEDHDIPIGIDKALEKMQREEQCILYLGPRYGFGEAGKPKFGIEPNAELIYEVTLKSFEKAKESWEMDTKEKLEQAAIVKEKGTVYFKGGKYMQAVIQYGKIVSWLEMEYGLSEKESKASESFLLAAFLNLAMCYLKLREYTKAVECCDKALGLDSANEKGLYRRGEAQLLMNEFESAKGDFEKVLEVNPQNKAARLQISMCQKKAKEHNERDRRIYANMFKKFAEQDAKEEANKAMGKKTSEGVTNEKGTDSQAMEEEKPEGHV
 | binds | CLaNP-7-tagged FKBP51 C176S/C183S/C215S/C339S/C394S/E110C (natural protein, human, UniProt Q13451 1-457, looked up, CLaNP-7 lanthanide tag (Tm3+ or Lu3+) attached to C107 and C110 (E110C) in FK1, Human FKBP51, full length, with E110C and all cysteines other than C107 removed; also called FKBP51_(C176S/C183S/C215S/C339S/C394S/E110C)-CLaNP-7; source: E. coli, purified as the wild-type protein, tagged with CLaNP-7) MTTDEGAKNNEESPTATVAEQGEDITSKKDRGVLKIVKRVGNGEETPMIGDKVYVHYKGKLSNGKKFDSSHDRNEPFVFSLGKGQVIKAWDIGVATMKKGEICHLLCKPCYAYGSAGSLPKIPSNATLFFEIELLDFKGEDLFEDGGIIRRTKRKGEGYSNPNEGATVEIHLEGRSGGRMFDSRDVAFTVGEGEDHDIPIGIDKALEKMQREEQSILYLGPRYGFGEAGKPKFGIEPNAELIYEVTLKSFEKAKESWEMDTKEKLEQAAIVKEKGTVYFKGGKYMQAVIQYGKIVSWLEMEYGLSEKESKASESFLLAAFLNLAMCYLKLREYTKAVESCDKALGLDSANEKGLYRRGEAQLLMNEFESAKGDFEKVLEVNPQNKAARLQISMSQKKAKEHNERDRRIYANMFKKFAEQDAKEEANKAMGKKTSEGVTNEKGTDSQAMEEEKPEGHV
